Data from US7256321B2, “Intracellular modulators of apoptopic cell death pathways” (Applied Research Systems ARS Holding N.V., priority 1997, dated 2007).

Columns and labels:
Type in all cases: cell-based, mouse
3DO transfected clones [1] = assay: Anti-CD3-induced apoptosis of 3DO transfected clones (propidium iodide flow cytometry); conditions: GILR expression in transfected 3DO clones
Description: Thymocytes were obtained from 3 to 5-week-old C3H/HeN mice purchased from Charles River (Milan, Italy). The cell suspensions were washed, filtered and adjusted to a concentration of 8×10^6 cells/ml in complete medium. The cells were incubated at 37° C. alone or with 100 nM/l DEX (Sigma, St. Louis, Mo.) for 3 hrs. A CD3+, CD4+, CD2+, CD44+ sub-line obtained in our laboratory of the OVA-specific mouse hybridoma T cell line (3DO; Ayroldi et al., 1995) maintained in suspension in RPMI 1640 medium supplemented with 10% FCS and […] HEPES buffer was used for transfection experiments. […]
The GILR cDNA coding sequence (874 bp—see FIG. 2) was cloned into a pcDNA3 plasmid (Invitrogen) for expression in mammalian cells. […] These surviving cells were considered clones and analyzed in an RNase protection assay for the expression of exogenous GILR (Vito et al., 1996). […]
Apoptosis was measured by flow cytometry as described elsewhere (Nicoletti et al., 1991). […] The PI-fluorescence of individual nuclei was measured by flow cytometry using standard FACScan equipment (Becton Dickinson). […] A 560 nm dichroid mirror (DM 570) and a 600 nm band pass filter (band width 35 nm) were used to collect the red fluorescence due to PI DNA staining. The data were recorded in logarithmic scale in a Hewlett Packard (HP 9000, model 310; Palo Alto, Calif.) computer. […]

[2] = system: Fas/Fas-L expression on 3DO transfected clones; assay: Fas and Fas-L expression on 3DO transfected clones (flow cytometry); conditions: GILR expression in transfected 3DO clones
Description: Hamster anti-mouse CD3ε (clone 145-2C11; Pharmingen, San Diego, Calif.) mAb at 1 μg/well (=1 μg/ml of anti-CD3 antibody) was allowed to adhere to flat-bottomed, high-binding 96-well plates (Costar, Cambridge, Mass.) at 4° C. in 100 μl PBS. After 20 hours, plates coated with mAb were washed and transfected clones were plated at 1×10^5 cells/well and incubated at 37° C. for 20 hours. Isotype-matched rat anti-mouse IgG 2b mAbs (clone R 35-38, Pharmingen) were used a control.
A single suspension (1×10^6cells/sample) was incubated for 30 minutes on ice in 50 μl staining buffer (PBS plus 5% FCS), containing 10 μg/ml hamster anti-mouse Fas mAb directly conjugated to R-phycoerythrin (PE) or PE-hamster IgG (isotype control).
Both mAbs were purchased from Pharmingen. Cells were also stained with rabbit polyclonal antibody raised against a peptide corresponding to amino acids 260-279 mapping at the carboxy terminus of human Fas-L (Santa Cruz Biotechnology, Inc., Santa Cruz, Calif.) or with isotype-matched antibody (ab), and with anti-rabbit IgG FITC conjugate, F(ab′)2 fragment (Sigma), as a second step reagent.
All clones were stained with hamster anti-mouse αCD3, directly conjugated with fluorescein (Pharmingen). The median or percentage of Fas and Fas-L histograms was calculated using lysis II research software (Becton-Dickinson, Mountain View, U.S.A.).

IL-2R = IL-2R (CD25) expression on 3DO transfected clones (flow cytometry); conditions: overexpression of GILR in transfected 3DO clones
Description: For that purpose, GILR transfected clones were activated and analyzed for apoptosis and expression of activation markers, like the interleukin-2 receptor (IL-2R). In particular, after stimulation with cross-linked anti-CD3 monoclonal antibodies (1 μg/ml), GILR-transfected and empty vector clones (used as control) were stained with anti-IL-2R monoclonal antibody (CD25) or treated for propidium iodide labeling for apoptosis evaluation. The supernatants from control and anti-CD3-treated clones were used for IL-2 detection in an ELISA assay.

3DO transfected clones [3] = assay: Apoptosis induced by other stimuli on 3DO transfected clones; conditions: GILR overexpression in 3DO clones GILR/1,5,7 vs pcDNA3/4,7,8, 20 hours
Description: FIGS. 7A-7D are bar-graph representations of the results of the analysis of apoptosis induced by other stimuli on 3DO transfected clones, wherein in FIG. 7A is shown the results obtained with withdrawn trophic factor; in FIG. 7B is shown the results obtained with u.v. irradiation (100 J/m2); in FIG. 7C is shown the results obtained with DEX ([…]); and in FIG. 7D is shown the results obtained with monoclonal (mAb) anti-Fas antibody (5 μg/ml). All groups were treated for 20 hours. Cell death was measured as indicated above with respect to FIG. 6, and as noted herein below. […]
Aliquots of2 ml transfected clones (1×10^6/ml) were incubated with DEX or subjected to deprivation conditions (1% FCS). The apoptosis was evaluated after 20 hours as described below.
Apoptosis was measured by flow cytometry as described elsewhere (Nicoletti et al., 1991). […] The PI-fluorescence of individual nuclei was measured by flow cytometry using standard FACScan equipment (Becton Dickinson). […] A 560 nm dichroid mirror (DM 570) and a 600 nm band pass filter (band width 35 nm) were used to collect the red fluorescence due to PI DNA staining. The data were recorded in logarithmic scale in a Hewlett Packard (HP 9000, model 310; Palo Alto, Calif.) computer. The percentage of apoptotic cell nuclei (sub-diploid DNA peak in the DNA fluorescence histogram) was calculated with specific FACScan research software (Lysis II).

B1: GILR: Glucocorticoid Induced Leucine-zipper family Related protein, 137 amino acids (mouse), overexpressed from GILR cDNA in pcDNA3 (protein)
chain: MNTEMYQTPMEVAVYQLHNFSTSFFSSLLGGDVVSVKLDNSASGASVVALDNKIEQAMDLVKNHLMYAVREEVEVLKEQIRELLEKNSQLERENTLLKTLASPEQLEKFQSRLSPEEPAPEAPETPETPEAPGGSAV
TCR/CD3-activated apoptosis (3DO transfected clones [1]): inhibits | Fas/Fas-L expression [2]: inhibits | anti-CD3 induced activation (IL-2R, IL-2) (IL-2R): inhibits | apoptosis induced by DEX, UV irradiation, starvation or crosslinked anti-Fas monoclonal antibody (3DO transfected clones [3]): does not counteract
